Positions count from the first letter of the chain named. * marks the point of attachment. Myristoyl = CCCCCCCCCCCCCC(=O)*
Legend:
[1] = test system: ongoing neuropathic pain in SNL rats; assay: Conditioned place preference test for ongoing pain in SNL rats; assay type: in vivo, rat; conditions: intrathecal 50 μM, 10 μl; scramble peptide-paired chamber as comparison
Excerpt: Ongoing, or spontaneous, pain, which is most bothersome to patients, is difficult to treat and difficult to study in animals. The conditioned place preference test has been successfully developed to reveal the presence of non-evoked, ongoing pain and pain relief based on the preference of an animal for the context paired with a pain-relief treatment. The conditioned place preference can also capture the aversive aspects of pain. Strikingly, many studies have shown that the rodent conditioned place preference test accurately reflects the effectiveness of human clinical treatments. Therefore, this test is a powerful approach to investigate the potential effectiveness of new treatments and mechanisms for relief of ongoing pain. Two previous studies have examined the role of TRPA1 in ongoing pain by the conditioned place preference test. […] Because the antagonists used in those studies (HC030031 and Chem5861528) target TRPA1 monomers, it is possible that T100-Mut can inhibit ongoing pain by modulating the TRPA1/V1 complex. This possibility was tested in rodents with SNL-induced ongoing pain using the conditioned place preference test. […] Systemic administration of gabapentin, an analgesic that is known to alleviate neuropathic pain, was used as a positive control (FIG. 16B).

[2] = test system: CFA-induced hyperalgesia in mice; assay: CFA injection: mechanical (von Frey) and thermal (Hargreaves) hyperalgesia; assay type: in vivo, mouse; conditions: peptide 5 μl of 2 mM; 3 hours after treatment
Description: Mice were placed in a transparent plastic box (4.5×5×10 cm) on a metal mesh and acclimatized for 30 minutes prior to testing. Each mouse was tested more than 5 times at a specific force manually, and the threshold was determined by the lowest force needed to elicit responses more than 50% of the time.
Mice were placed under a transparent plastic box (4.5×5×10 cm) on a glass platform (Plantar Test Apparatus, IITC Life Science). Radiant heat was adjusted to 18% of maximal output and shone on the center of the paws. Each mouse was tested more than 3 times, with each test performed 20 minutes apart.
Mice were injected with 6 μL of 50% emulsified Complete Freund's Adjuvant (Sigma, F5881) in normal saline.
The sequence from the last 28 amino acids of the C-terminus of the Tmem100-3Q mutant protein was synthesized and myristoylated at its N-terminus (myr-[…]-COOH) (SEQ ID NO: 8) by Twentyfirst Century Biochemicals. […] For the calcium imaging assay, the peptides were added to the calcium imaging buffer with a final concentration of 200 nM and incubated for at least […] at room temperature. For the mice behavioral assays, the peptides (5 μL, 2 mM) were injected subcutaneously in the hindpaw at least 30 minutes before testing. For the rat behavior assays, human T100-3Q (h-T100), a palmitoylated cell permeable peptide mutated based on the C terminus of human sequence in Tmem100, was applied. […]

TRPV1 = biological target: T1, TRPV1 (Mus musculus, UniProt Q704Y3); assay: Calcium imaging of DRG neurons, response to capsaicin (CAP); assay type: cell-based; conditions: peptide 200 nM pretreatment; 100 nM CAP; IB4-negative DRG neurons
T1 construct: calcium imaging data from the T100-Mut-treated (200 nM) DRG neurons; endogenous in cells; host or cells: primary mouse DRG neurons
Description: (§1) Calcium imaging assays were performed as previously described (Liu et al., 2009). Cells were loaded with 2 μM fura 2-acetomethoxy ester (Molecular Probes) for 30 min in the dark at room temperature or for 45 minutes at 37° C. for DRG and cell lines, respectively. After washing, cells were imaged at 340 and 380 nm excitation to detect intracellular free calcium under a fluorescent microscope (Nikon Eclipse TE2000-S) and Lambda 10B shutter (Sutter Instrument). The cells were bathed in calcium imaging buffer (pH 7.45, 130 mM NaCl, 3 mM KCl, 2.5 mM CaCl2, 10 mM HEPES, 10 mM glucose, 1.2 mM NaHCO3, with sucrose to increase osmolarity to 290 mOsm). […] Images were processed and analyzed with NIS-Elements BR 2.30 software (Nikon). […] The data was analyzed with the experimenter blinded to the genotypes or constructs transfected.
(§2) DRG from 3 to 4-week old mice were collected in cold DH10 medium (90% DMEM/F-12, 10% FBS, 100 U/ml penicillin, and 100 μg/ml Streptomycin, Gibco) and treated with enzyme solution in HBSS containing collagenase (1.65 mg/mL, Worthington CLS I) and dispase (3.55 mg/mL, GIBCO 17105-041) at 37° C. for 30 minutes. […] This efficiency was determined by mCherry(+) divided by total number of cells in the bright fields. […]

TRPA1 [3] = biological target: T2, TRPA1 (Mus musculus, UniProt Q704Y3+Q8BLA8); assay: Calcium imaging of DRG neurons, response to mustard oil (MO); assay type: cell-based; conditions: peptide 200 nM pretreatment; 10 μM MO; IB4-negative DRG neurons
T2 construct: endogenous in cells; host or cells: primary mouse DRG neurons
Description: as §1, §2

[4] = biological target: TRPV1 (expressed in heterologous cells: CHO, HEK293T); assay: cell-based or functional assay
[5] = biological target: TRPA1 (expressed in heterologous cells: CHO, HEK293T); assay: cell-based or functional assay
TRPA1 [6] = assay: Calcium imaging of HEK293T cells expressing TRPA1 and TRPV1 (MO or CA); assay type: cell-based; conditions: HEK293T TRPA1+TRPV1 with Tmem100
Description: Calcium imaging assays were performed as previously described (Liu et al., 2009). Cells were loaded with 2 μM fura 2-acetomethoxy ester (Molecular Probes) for 30 min in the dark at room temperature or for 45 minutes at 37° C. for DRG and cell lines, respectively. After washing, cells were imaged at 340 and 380 nm excitation to detect intracellular free calcium under a fluorescent microscope (Nikon Eclipse TE2000-S) and Lambda 10B shutter (Sutter Instrument). The cells were bathed in calcium imaging buffer (pH 7.45, 130 mM NaCl, 3 mM KCl, 2.5 mM CaCl2, 10 mM HEPES, 10 mM glucose, 1.2 mM NaHCO3, with sucrose to increase osmolarity to 290 mOsm). The reagents and buffers were applied through a gravity perfusion system at a rate of […], including mustard oil (Sigma 377430), cinnamaldehyde (Sigma C80687), menthol (Sigma M2780), and capsaicin (Sigma M2028). Cells with high baseline 340/380 values (>1.5) were excluded for analysis. For DRG neurons, IB4 staining was performed in the chamber with the dilution of 1:200 (Molecular Probes 121412) for 160 seconds before washing off at the end of each test. Images were processed and analyzed with NIS-Elements BR 2.30 software (Nikon). A responsive cell was defined as one that with greater than a 20% increase in the 340/380 ratio above the baseline. Intracellular calibration for calcium was performed as previously described (Akopian et al., 2007). The data was analyzed with the experimenter blinded to the genotypes or constructs transfected.
DRG from 3 to 4-week old mice were collected in cold DH10 medium (90% DMEM/F-12, 10% FBS, 100 U/ml penicillin, and 100 μg/ml Streptomycin, Gibco) and treated with enzyme solution in HBSS containing collagenase (1.65 mg/mL, Worthington CLS I) and dispase (3.55 mg/mL, GIBCO 17105-041) at 37° C. for 30 minutes. After trituration and centrifugation, cells were resuspended in DH10, plated on glass coverslips coated with poly-D-lysine (0.5 mg/ml, Stoughton, Mass.) and laminin (10 μg/ml, Invitrogen), and cultured overnight in an incubator at 37° C. The neurons were tested within 24 hours. HEK293T, COS-7, and CHO cells were cultured in a medium consisting of 90% DMEM, 10% FBS, 100 U/mL penicillin, and 100 μg/ml Streptomycin. GlutaMAX (Gibco 35050-061) was also added for CHO cells. For calcium imaging, the cells were plated on glass coverslips coated with poly-D-lysine (0.5 mg/ml, Stoughton, Mass.). In the HEK cell studies the denominator is the cells expressing both TRPA1, TRPV1, and the designated constructs (i.e. Tmem100 or Tmem100-3Q mutant). mCherry:TRPV1:Tmem100 was transfected in 1:8:8 ratio into TRPA1 stable cell line (obtained from N. Tigue from GlaxoSmithKline) and used mCherry as the marker for the cells expressing the constructs 18 hours after transfection with Lipofectamine 2000. The transfection efficiency for Tmem100+TRPV1+TRPA1 triple-positive cells is 27±3%. This efficiency was determined by mCherry(+) divided by total number of cells in the bright fields.
The sequence from the last 28 amino acids of the C-terminus of the Tmem100-3Q mutant protein was synthesized and myristoylated at its N-terminus (myr-[…]-COOH) (SEQ ID NO: 8) by Twentyfirst Century Biochemicals. […] For the calcium imaging assay, the peptides were added to the calcium imaging buffer with a final concentration of 200 nM and incubated for at least […] at room temperature. For the mice behavioral assays, the peptides (5 μL, 2 mM) were injected subcutaneously in the hindpaw at least 30 minutes before testing. For the rat behavior assays, human T100-3Q (h-T100), a palmitoylated cell permeable peptide mutated based on the C terminus of human sequence in Tmem100, was applied. The sequence is Palmitoyl-[…]-COOH (SEQ ID NO: 7).

T1 sequence (Q704Y3 whole entry): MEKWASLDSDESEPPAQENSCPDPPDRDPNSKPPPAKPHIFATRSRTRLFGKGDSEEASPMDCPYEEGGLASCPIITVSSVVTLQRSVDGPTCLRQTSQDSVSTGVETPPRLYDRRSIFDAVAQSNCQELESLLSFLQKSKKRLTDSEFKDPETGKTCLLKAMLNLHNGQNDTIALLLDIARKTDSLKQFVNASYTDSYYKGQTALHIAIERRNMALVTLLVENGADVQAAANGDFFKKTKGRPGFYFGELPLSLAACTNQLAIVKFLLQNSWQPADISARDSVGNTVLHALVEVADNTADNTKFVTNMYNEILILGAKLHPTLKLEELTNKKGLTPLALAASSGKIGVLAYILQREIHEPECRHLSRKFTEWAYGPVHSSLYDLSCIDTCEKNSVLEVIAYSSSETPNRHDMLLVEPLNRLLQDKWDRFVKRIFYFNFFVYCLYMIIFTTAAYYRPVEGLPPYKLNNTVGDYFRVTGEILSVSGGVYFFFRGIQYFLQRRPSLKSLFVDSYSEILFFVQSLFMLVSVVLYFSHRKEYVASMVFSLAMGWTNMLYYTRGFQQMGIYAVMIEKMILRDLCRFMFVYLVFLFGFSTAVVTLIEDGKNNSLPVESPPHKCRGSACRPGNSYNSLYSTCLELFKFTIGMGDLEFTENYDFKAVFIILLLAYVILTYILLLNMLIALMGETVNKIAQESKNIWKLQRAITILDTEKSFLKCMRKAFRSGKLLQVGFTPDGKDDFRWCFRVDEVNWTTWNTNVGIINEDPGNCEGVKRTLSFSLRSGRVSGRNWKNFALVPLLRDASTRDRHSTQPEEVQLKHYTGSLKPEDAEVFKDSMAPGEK
Sequence of TRPA1 (expressed in heterologous cells: CHO, HEK293T) (O75762 whole entry): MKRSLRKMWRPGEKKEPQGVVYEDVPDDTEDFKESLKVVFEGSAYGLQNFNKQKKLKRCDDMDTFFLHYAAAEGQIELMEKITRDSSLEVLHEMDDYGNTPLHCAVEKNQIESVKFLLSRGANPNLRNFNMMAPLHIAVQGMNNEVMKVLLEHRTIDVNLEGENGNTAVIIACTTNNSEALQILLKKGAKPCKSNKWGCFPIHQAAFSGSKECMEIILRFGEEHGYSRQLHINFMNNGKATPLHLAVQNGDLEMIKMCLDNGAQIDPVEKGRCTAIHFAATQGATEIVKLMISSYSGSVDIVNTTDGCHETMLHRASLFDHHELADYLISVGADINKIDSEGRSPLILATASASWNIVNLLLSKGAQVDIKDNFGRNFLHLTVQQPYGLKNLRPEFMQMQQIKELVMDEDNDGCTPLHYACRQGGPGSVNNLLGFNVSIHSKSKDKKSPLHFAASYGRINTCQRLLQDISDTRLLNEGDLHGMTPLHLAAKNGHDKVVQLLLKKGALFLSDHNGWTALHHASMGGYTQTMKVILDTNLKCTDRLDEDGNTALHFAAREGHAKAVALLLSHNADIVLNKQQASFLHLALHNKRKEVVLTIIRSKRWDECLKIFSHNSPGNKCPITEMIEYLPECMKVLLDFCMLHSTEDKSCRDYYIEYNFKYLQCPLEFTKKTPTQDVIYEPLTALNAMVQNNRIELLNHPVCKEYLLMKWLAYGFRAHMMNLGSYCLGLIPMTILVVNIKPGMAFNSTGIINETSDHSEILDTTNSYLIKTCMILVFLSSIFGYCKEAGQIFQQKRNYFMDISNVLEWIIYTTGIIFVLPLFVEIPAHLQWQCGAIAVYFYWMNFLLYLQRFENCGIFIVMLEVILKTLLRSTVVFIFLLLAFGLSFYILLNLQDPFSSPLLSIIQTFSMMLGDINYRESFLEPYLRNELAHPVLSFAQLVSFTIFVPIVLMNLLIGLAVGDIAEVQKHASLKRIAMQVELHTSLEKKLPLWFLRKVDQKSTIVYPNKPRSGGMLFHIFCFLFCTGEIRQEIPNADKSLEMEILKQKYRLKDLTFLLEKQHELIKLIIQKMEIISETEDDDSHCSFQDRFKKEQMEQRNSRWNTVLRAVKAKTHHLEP
T2 sequence (Q8BLA8 whole entry): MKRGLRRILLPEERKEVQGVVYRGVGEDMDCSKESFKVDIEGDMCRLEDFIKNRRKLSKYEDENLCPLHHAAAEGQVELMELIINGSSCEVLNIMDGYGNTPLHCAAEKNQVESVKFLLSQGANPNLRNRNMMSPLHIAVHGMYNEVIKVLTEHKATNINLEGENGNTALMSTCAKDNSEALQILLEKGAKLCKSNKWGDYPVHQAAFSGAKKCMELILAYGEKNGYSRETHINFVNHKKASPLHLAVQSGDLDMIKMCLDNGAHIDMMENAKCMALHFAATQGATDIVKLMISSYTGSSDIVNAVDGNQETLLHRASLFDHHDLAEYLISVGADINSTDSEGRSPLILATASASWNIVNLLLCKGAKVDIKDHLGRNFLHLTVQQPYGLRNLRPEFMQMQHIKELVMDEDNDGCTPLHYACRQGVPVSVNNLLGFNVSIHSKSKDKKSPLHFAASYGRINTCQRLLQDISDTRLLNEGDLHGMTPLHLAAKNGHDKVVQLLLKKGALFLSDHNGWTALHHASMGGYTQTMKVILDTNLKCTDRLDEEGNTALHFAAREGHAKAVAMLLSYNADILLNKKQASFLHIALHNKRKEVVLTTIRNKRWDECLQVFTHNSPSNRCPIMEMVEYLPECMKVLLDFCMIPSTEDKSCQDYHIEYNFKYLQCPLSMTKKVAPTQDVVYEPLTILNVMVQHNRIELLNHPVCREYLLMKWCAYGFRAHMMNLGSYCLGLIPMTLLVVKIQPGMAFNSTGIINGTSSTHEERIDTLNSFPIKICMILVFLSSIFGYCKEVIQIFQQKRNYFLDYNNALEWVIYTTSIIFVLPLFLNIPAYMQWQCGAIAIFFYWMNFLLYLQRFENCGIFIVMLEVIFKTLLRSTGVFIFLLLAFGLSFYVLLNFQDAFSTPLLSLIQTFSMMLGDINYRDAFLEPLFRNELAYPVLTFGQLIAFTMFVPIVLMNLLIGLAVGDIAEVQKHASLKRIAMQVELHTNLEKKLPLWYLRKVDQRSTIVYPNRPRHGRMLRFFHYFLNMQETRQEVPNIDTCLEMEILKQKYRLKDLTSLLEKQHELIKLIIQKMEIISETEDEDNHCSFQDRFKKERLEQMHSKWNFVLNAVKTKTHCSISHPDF
T2 sequence (Q704Y3 whole entry): as the sequence (Q704Y3 whole entry) above

With “myr-QRVLEQVLQNWSRRANVKQAQKFQVKCT-COOH (Myristoyl-QRVLEQVLQNWSRRANVKQAQKFQVKCT-OH; SMILES CCCCCCCCCCCCCC(=O)N[C@@H](CCC(N)=O)C(=O)N[C@@H](CCCNC(=N)N)C(=O)N[C@H](C(=O)N[C@@H](CC(C)C)C(=O)N[C@@H](CCC(=O)O)C(=O)N[C@@H](CCC(N)=O)C(=O)N[C@H](C(=O)N[C@@H](CC(C)C)C(=O)N[C@@H](CCC(N)=O)C(=O)N[C@@H](CC(N)=O)C(=O)N[C@@H](Cc1c[nH]c2ccccc12)C(=O)N[C@@H](CO)C(=O)N[C@@H](CCCNC(=N)N)C(=O)N[C@@H](CCCNC(=N)N)C(=O)N[C@@H](C)C(=O)N[C@@H](CC(N)=O)C(=O)N[C@H](C(=O)N[C@@H](CCCCN)C(=O)N[C@@H](CCC(N)=O)C(=O)N[C@@H](C)C(=O)N[C@@H](CCC(N)=O)C(=O)N[C@@H](CCCCN)C(=O)N[C@@H](Cc1ccccc1)C(=O)N[C@@H](CCC(N)=O)C(=O)N[C@H](C(=O)N[C@@H](CCCCN)C(=O)N[C@@H](CS)C(=O)N[C@H](C(=O)O)[C@@H](C)O)C(C)C)C(C)C)C(C)C)C(C)C) [scrambled]” the “conditioned place preference: time in drug-paired chamber, SNL rats” value [1] was “no effect”, the “CFA-induced mechanical hyperalgesia (mechanical threshold)” value [2] was 0.05 ± 0.0 g and the “CFA-induced thermal hyperalgesia (latency)” value [2] was 3.9 ± 0.6 s. The “percentage of DRG neurons responding to CAP” value (TRPV1) was 16±1.3% and the “percentage of DRG neurons responding to MO” value (TRPA1 [3]) was 12±1.3%.

B1: Tmem100-3Q mutant (full-length, mouse) (protein)
chain: MTEESTKENLGAPKSPTPVTMEKNPKREVVVTTGPLVSEVQLMAATGGAELSCYRCIIPFAVVVFITGIVVTAVAYSFNSHGSIISIFGLVLLSSGLFLLASSALCWKVRQRNKKVQQQESQTALVVNQRCLFA
In the case of B1, the CAP (100 nM)-induced single-channel activity (NPo), CHO cells [4] is reported as 0.73 and the MO (10 µM)-induced single-channel activity (NPo), CHO cells [5] is reported as 1.05.

B2: Tmem100: 134-amino acid two-transmembrane protein, regulator of TRPA1 (SEQ ID NO: 1/2), expressed in cells (protein, listed as Homo sapiens, listed as Mus musculus)
chain 1: MTEEPIKEILGAPKAHMAATMEKSPKSEVVITTVPLVSEIQLMAATGGTELSCYRCIIPFAVVVFIAGIVVTAVAYSFNSHGSIISIFGLVVLSSGLFLLASSALCWKVRQRSKKAKRRESQTALVANQRSLFA
chain 2: B1 chain with Q117K, Q118R, Q119R
For B2, the “percentage of cells responsive to MO” value (TRPA1 [6]; 100 nM MO) was 20% and the “percentage of cells responsive to CA” value (TRPA1 [6]; 5 μM CA) was 30%.

Reference: patent publication US11066455B2, “Tmem100 peptides and variants thereof and their use in treating or preventing diseases or conditions” (The Johns Hopkins University, priority 2014, dated 2021)
